Experimental data taken from patent publication US20260159579A1 (Pfizer, published 2026).
Positions count from the first letter of the chain named. “And” between values parts separate entries of the source, which are not always exact repeats. Equal entries are not always repeated.

Columns and labels:
[1] = target: T1, Mouse Fc-human GDF15 (Mu IgG1Fc_Fxa_Hu GDF15) (human); assay: SPR BIAcore T200, 37C; Fc-GDF15 captured, monomeric Fc-Fab as analyte; human GDF15 ligand (Mu IgG1Fc_Fxa_Hu GDF15), first run
T1 construct: Whole entry is the fusion: mouse IgG1 Fc, FXa site and linker, mature human GDF15; described as dimeric; also called Murine dimeric IgG1 Fc-human GDF-15 with FXa cleavage site; control human GDF15
T1 chain: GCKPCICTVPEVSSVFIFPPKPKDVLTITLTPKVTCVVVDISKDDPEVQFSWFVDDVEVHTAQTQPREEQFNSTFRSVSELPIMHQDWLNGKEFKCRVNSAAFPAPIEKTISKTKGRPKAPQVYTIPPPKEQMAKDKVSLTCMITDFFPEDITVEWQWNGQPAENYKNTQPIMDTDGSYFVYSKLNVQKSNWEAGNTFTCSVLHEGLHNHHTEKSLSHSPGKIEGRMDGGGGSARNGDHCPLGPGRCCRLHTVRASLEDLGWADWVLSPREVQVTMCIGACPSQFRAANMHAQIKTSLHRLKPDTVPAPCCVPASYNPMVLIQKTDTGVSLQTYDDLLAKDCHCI
Description: (§1) To understand the KD value, without the avidity effect, of GDF15_001 binding to GDF15, monomeric Fc-Fab was produced and tested in the same assay used in Example 2. […] Mu IgG1Fc_Fxa_Hu GDF15, Mu IgG1Fc_Fxa_Mu GDF15 and Mu IgG1Fc_Fxa_Cyno GDF15 were captured onto three different flow cells of a CM4 sensorchip (catalogue number BR100534, GE Healthcare) surface using the Mouse Antibody Capture Kit (BR100838, GE Healthcare) according to the manufacturer's protocol. The running and sample buffer was 10 mM HEPES pH 7.4, 0.15M NaCl, 3 mM EDTA, 0.05% P-20 (HBS-EP+). The final capture levels of Mu IgG1Fc_Fxa_Hu GDF15, Mu IgG1Fc_Fxa_Mu GDF15 and Mu IgG1Fc_Fxa_Cyno GDF15 were 19 resonance units (RU), 22 RU and 19 RU respectively. Flow cell 1 was used as a reference flow cell. […] The dissociation was monitored for 1200 seconds and the surface was regenerated with 10 mM Glycine pH 1.7. Binding affinities and rate constants were determined by fitting the resulting sensorgram data to a 1:1 Langmuir model in BIAcore T200 Evaluation software version 2.0 (GE Healthcare).

[2] = target: Mouse Fc-mouse GDF15 (Mu IgG1Fc_Fxa_Mu GDF15) (mouse); assay: SPR BIAcore T200, 37C; Fc-GDF15 captured, monomeric Fc-Fab as analyte; murine GDF15 ligand (Mu IgG1Fc_Fxa_Mu GDF15), first run
[3] = target: Mouse Fc-mouse GDF15 (Mu IgG1Fc_Fxa_Mu GDF15) (mouse); assay: SPR BIAcore T200, 37C; Fc-GDF15 captured, monomeric Fc-Fab as analyte; average of runs
[4] = target: Mouse Fc-mouse GDF15 (Mu IgG1Fc_Fxa_Mu GDF15) (mouse); assay: SPR BIAcore T200, 37C; Fc-GDF15 captured, monomeric Fc-Fab as analyte
[5] = target: T1, Mouse Fc-human GDF15 (Mu IgG1Fc_Fxa_Hu …); assay: as above
Description: as §1

[6] = target: T2, Mouse Fc-cynomolgus monkey GDF15 (Mu IgG1Fc_Fxa_Cyno GDF15) (cynomolgus monkey); assay: as above
T2 construct: Whole entry is the fusion: mouse IgG1 Fc, FXa site and linker, cynomolgus GDF15; described as dimeric; also called Murine dimeric IgG1 Fc-cyno GDF-15 with FXa cleavage site
T2 chain: T1 chain with H239R, R254H, A287E, T296M, S297N, I345V
Description: as §1

[7] = target: T1, Mouse Fc-human GDF15 (Mu IgG1Fc_Fxa_Hu …); assay: SPR BIAcore T200, 37C; Fc-GDF15 captured, monomeric Fc-Fab as analyte; human GDF15 ligand (Mu IgG1Fc_Fxa_Hu GDF15), second run
Description: as §1

[8] = target: T1, Mouse Fc-human GDF15 (Mu IgG1Fc_Fxa_Hu …); assay: SPR BIAcore T200, 37C; Fc-GDF15 captured, monomeric Fc-Fab as analyte; average of runs
Description: as §1

[9] = target: T2, Mouse Fc-cynomolgus monkey GDF15 (Mu …); assay: as above
Description: as §1

Kd [1]: 14.9 pM
Kd [2]: 2110 pM
Kd [3]: 1960 pM
koff [3]: 0.00326 s⁻¹
kon [3]: 1.66e+06 M⁻¹ s⁻¹
T½ min [4]: 3.39 min and 3.73 min
koff [4]: 0.00341 s⁻¹ and 0.0031 s⁻¹
kon [4]: 1.62e+06 M⁻¹ s⁻¹ and 1.7e+06 M⁻¹ s⁻¹
T½ min [5]: 8.54 h and 4.2 h
koff [5]: 2.25e-05 s⁻¹ and 4.58e-05 s⁻¹
kon [5]: 1.52e+06 M⁻¹ s⁻¹ and 1.66e+06 M⁻¹ s⁻¹
Kd [6]: 45.8 pM and 78.2 pM
T½ min [6]: 2.57 h and 2.05 h
koff [6]: 7.48e-05 s⁻¹ and 9.39e-05 s⁻¹
kon [6]: 1.63e+06 M⁻¹ s⁻¹ and 1.2e+06 M⁻¹ s⁻¹
Kd [7]: 27.6 pM
Kd [8]: 21.3 pM
koff [8]: 3.42e-05 s⁻¹
kon [8]: 1.59e+06 M⁻¹ s⁻¹
Kd [9]: 62 pM
koff [9]: 8.43e-05 s⁻¹
kon [9]: 1.42e+06 M⁻¹ s⁻¹
B1: monomeric GDF15_001 (CH23LS-GBT-GDF15_001) (Fab, V domains shown)
VH: QVQLVQSGAEVKKPGSSVKVSCKASGYTFSSYNIDWVRQAPGQGLEWMGGINPIFGTAFYNQKFQGRVTITADESTSTAYMELSSLRSEDTAVYYCAREAITTVGAMDHWGQGTLVTVSS
VL: EIVLTQSPATLSLSPGERATLSCRTSQSVHNYLAWYQQKPGQAPRLLIYDASTRADGIPARFSGSGSGTDFTLTISSLEPEDFAVYYCQQFWSWPWTFGQGTKVEIK
notes: Monovalent 'monomeric Fc-Fab' of GDF15_001 made to measure KD without avidity; also called CH23LS-GDF15_001; monomeric Fc-Fab
